Reference: the supplement of paper PMC7125110
± gives the standard error. This sample holds only a part of the variants without activity.

B1: glmS ribozyme (parent)
chain: AUAAAAGCGCCAGAACUACAGAAAUGUAGUUGACGAGGAGGAGGUUUAUCGAAUUUUCGGCGGAUGCCUCCAAA

How the values were obtained:
Details in all cases: with glucosamine-6-phosphate
glucosamine-6-phosphate [1] = variants of: B1; experiment: self-cleavage kobs at 40 uM GlcN6P; higher = faster cleavage; RNA array
Method in brief: (§1)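 In situ transcription by E. coli RNA polymerase produced barcoded ribozyme variants on sequenced MiSeq chips, and a hybridised Cy3 probe tracked them at 37 °C. Glucosamine-6-phosphate was flowed in at 40 μM to 10 mM in HEPES/KCl/Mg(OAc)2 buffer. kcat and KM were taken from weighted Michaelis–Menten fits of kobs values from exponential decay fits.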

glucosamine-6-phosphate [2] = variants of: B1; experiment: self-cleavage kobs at 640 uM GlcN6P; higher = faster cleavage; RNA array
Method in brief: as §1

glucosamine-6-phosphate [3] = variants of: B1; experiment: self-cleavage kobs at 2500 uM GlcN6P; higher = faster cleavage; RNA array
Method in brief: as §1

glucosamine-6-phosphate [4] = variants of: B1; experiment: self-cleavage kobs at 10000 uM GlcN6P; higher = faster cleavage; RNA array
Method in brief: as §1

glucosamine-6-phosphate [5] = variants of: B1; experiment: self-cleavage kobs at 160 uM GlcN6P; higher = faster cleavage; RNA array
Method in brief: as §1

G40C G51A
self-cleavage kobs at 40 uM GlcN6P (glucosamine-6-phosphate [1]): < 1e-05 s⁻¹
self-cleavage kobs at 640 uM GlcN6P (glucosamine-6-phosphate [2]): < 1e-05 s⁻¹
self-cleavage kobs at 2500 uM GlcN6P (glucosamine-6-phosphate [3]): < 1e-05 s⁻¹
self-cleavage kobs at 10000 uM GlcN6P (glucosamine-6-phosphate [4]): < 1e-05 s⁻¹

A42G U45G
self-cleavage kobs at 40 uM GlcN6P (glucosamine-6-phosphate [1]): 0.000836 ± 0.00024 s⁻¹
self-cleavage kobs at 10000 uM GlcN6P (glucosamine-6-phosphate [4]): 0.0514 ± 0.014 s⁻¹

G44A A64C
self-cleavage kobs at 40 uM GlcN6P (glucosamine-6-phosphate [1]): < 1e-05 s⁻¹
self-cleavage kobs at 640 uM GlcN6P (glucosamine-6-phosphate [2]): < 1e-05 s⁻¹
self-cleavage kobs at 2500 uM GlcN6P (glucosamine-6-phosphate [3]): < 1e-05 s⁻¹
self-cleavage kobs at 10000 uM GlcN6P (glucosamine-6-phosphate [4]): < 1e-05 s⁻¹

U47A U54C C71U
self-cleavage kobs at 40 uM GlcN6P (glucosamine-6-phosphate [1]): 0.000577 ± 0.00018 s⁻¹
self-cleavage kobs at 10000 uM GlcN6P (glucosamine-6-phosphate [4]): 0.0135 ± 0.0039 s⁻¹

U45C C50U
self-cleavage kobs at 40 uM GlcN6P (glucosamine-6-phosphate [1]): < 1e-05 s⁻¹
self-cleavage kobs at 160 uM GlcN6P (glucosamine-6-phosphate [5]): < 1e-05 s⁻¹
self-cleavage kobs at 640 uM GlcN6P (glucosamine-6-phosphate [2]): < 1e-05 s⁻¹

G41A C58G
self-cleavage kobs at 40 uM GlcN6P (glucosamine-6-phosphate [1]): < 1e-05 s⁻¹
self-cleavage kobs at 160 uM GlcN6P (glucosamine-6-phosphate [5]): < 1e-05 s⁻¹
self-cleavage kobs at 640 uM GlcN6P (glucosamine-6-phosphate [2]): < 1e-05 s⁻¹
self-cleavage kobs at 2500 uM GlcN6P (glucosamine-6-phosphate [3]): < 1e-05 s⁻¹
self-cleavage kobs at 10000 uM GlcN6P (glucosamine-6-phosphate [4]): < 1e-05 s⁻¹

G44U U45C G63A
self-cleavage kobs at 40 uM GlcN6P (glucosamine-6-phosphate [1]): < 1e-05 s⁻¹

G40A C58G C70U
self-cleavage kobs at 40 uM GlcN6P (glucosamine-6-phosphate [1]): < 1e-05 s⁻¹
self-cleavage kobs at 10000 uM GlcN6P (glucosamine-6-phosphate [4]): < 1e-05 s⁻¹

G44A C61G
self-cleavage kobs at 40 uM GlcN6P (glucosamine-6-phosphate [1]): < 1e-05 s⁻¹
self-cleavage kobs at 160 uM GlcN6P (glucosamine-6-phosphate [5]): < 1e-05 s⁻¹
self-cleavage kobs at 2500 uM GlcN6P (glucosamine-6-phosphate [3]): < 1e-05 s⁻¹
self-cleavage kobs at 10000 uM GlcN6P (glucosamine-6-phosphate [4]): < 1e-05 s⁻¹

G51C A52G
self-cleavage kobs at 40 uM GlcN6P (glucosamine-6-phosphate [1]): < 1e-05 s⁻¹
self-cleavage kobs at 160 uM GlcN6P (glucosamine-6-phosphate [5]): < 1e-05 s⁻¹
self-cleavage kobs at 2500 uM GlcN6P (glucosamine-6-phosphate [3]): < 1e-05 s⁻¹
self-cleavage kobs at 10000 uM GlcN6P (glucosamine-6-phosphate [4]): < 1e-05 s⁻¹

A48C A64G
self-cleavage kobs at 40 uM GlcN6P (glucosamine-6-phosphate [1]): < 1e-05 s⁻¹
self-cleavage kobs at 160 uM GlcN6P (glucosamine-6-phosphate [5]): < 1e-05 s⁻¹
self-cleavage kobs at 10000 uM GlcN6P (glucosamine-6-phosphate [4]): 6.31e-05 ± 1.3e-05 s⁻¹

U46A A52U
self-cleavage kobs at 40 uM GlcN6P (glucosamine-6-phosphate [1]): < 1e-05 s⁻¹
self-cleavage kobs at 160 uM GlcN6P (glucosamine-6-phosphate [5]): < 1e-05 s⁻¹

G44C U57C
self-cleavage kobs at 40 uM GlcN6P (glucosamine-6-phosphate [1]): < 1e-05 s⁻¹
self-cleavage kobs at 160 uM GlcN6P (glucosamine-6-phosphate [5]): < 1e-05 s⁻¹
self-cleavage kobs at 640 uM GlcN6P (glucosamine-6-phosphate [2]): < 1e-05 s⁻¹
self-cleavage kobs at 2500 uM GlcN6P (glucosamine-6-phosphate [3]): < 1e-05 s⁻¹
self-cleavage kobs at 10000 uM GlcN6P (glucosamine-6-phosphate [4]): < 1e-05 s⁻¹

A48U C61A C67U
self-cleavage kobs at 40 uM GlcN6P (glucosamine-6-phosphate [1]): < 1e-05 s⁻¹
self-cleavage kobs at 2500 uM GlcN6P (glucosamine-6-phosphate [3]): < 1e-05 s⁻¹
self-cleavage kobs at 10000 uM GlcN6P (glucosamine-6-phosphate [4]): < 1e-05 s⁻¹

G41C C61U
self-cleavage kobs at 40 uM GlcN6P (glucosamine-6-phosphate [1]): < 1e-05 s⁻¹
self-cleavage kobs at 160 uM GlcN6P (glucosamine-6-phosphate [5]): < 1e-05 s⁻¹
self-cleavage kobs at 640 uM GlcN6P (glucosamine-6-phosphate [2]): < 1e-05 s⁻¹
self-cleavage kobs at 2500 uM GlcN6P (glucosamine-6-phosphate [3]): < 1e-05 s⁻¹
self-cleavage kobs at 10000 uM GlcN6P (glucosamine-6-phosphate [4]): < 1e-05 s⁻¹

A39U U55G
self-cleavage kobs at 40 uM GlcN6P (glucosamine-6-phosphate [1]): 0.000507 ± 7.9e-05 s⁻¹
self-cleavage kobs at 160 uM GlcN6P (glucosamine-6-phosphate [5]): 0.00122 ± 0.0003 s⁻¹
self-cleavage kobs at 640 uM GlcN6P (glucosamine-6-phosphate [2]): 0.00371 ± 0.00061 s⁻¹
self-cleavage kobs at 2500 uM GlcN6P (glucosamine-6-phosphate [3]): 0.00715 ± 0.0012 s⁻¹
self-cleavage kobs at 10000 uM GlcN6P (glucosamine-6-phosphate [4]): 0.0282 ± 0.0058 s⁻¹

G40U U55G
self-cleavage kobs at 40 uM GlcN6P (glucosamine-6-phosphate [1]): 0.000102 ± 1.4e-05 s⁻¹
self-cleavage kobs at 160 uM GlcN6P (glucosamine-6-phosphate [5]): 0.000149 ± 2.2e-05 s⁻¹
self-cleavage kobs at 640 uM GlcN6P (glucosamine-6-phosphate [2]): 0.000543 ± 9.9e-05 s⁻¹
self-cleavage kobs at 2500 uM GlcN6P (glucosamine-6-phosphate [3]): 0.00142 ± 0.00023 s⁻¹
self-cleavage kobs at 10000 uM GlcN6P (glucosamine-6-phosphate [4]): 0.00228 ± 0.00046 s⁻¹

A48U C50U A52C G63C C71U
self-cleavage kobs at 40 uM GlcN6P (glucosamine-6-phosphate [1]): < 1e-05 s⁻¹

G41U C50A U57A
self-cleavage kobs at 40 uM GlcN6P (glucosamine-6-phosphate [1]): < 1e-05 s⁻¹
self-cleavage kobs at 10000 uM GlcN6P (glucosamine-6-phosphate [4]): < 1e-05 s⁻¹

U46A C50G
self-cleavage kobs at 40 uM GlcN6P (glucosamine-6-phosphate [1]): < 1e-05 s⁻¹
self-cleavage kobs at 2500 uM GlcN6P (glucosamine-6-phosphate [3]): < 1e-05 s⁻¹
self-cleavage kobs at 10000 uM GlcN6P (glucosamine-6-phosphate [4]): < 1e-05 s⁻¹

A39G G40A A53C
self-cleavage kobs at 40 uM GlcN6P (glucosamine-6-phosphate [1]): 3.7e-05 ± 1.8e-05 s⁻¹
self-cleavage kobs at 10000 uM GlcN6P (glucosamine-6-phosphate [4]): 0.00139 ± 0.00041 s⁻¹
